These results are taken from publication PMC6526389.

Experiment [1] deals with HA-tagged human CXCR1 expressed on L1.2 cells (human) (UniProt P25024). Briefly: radioligand binding; competition of increasing concentrations of unlabeled CXCL8 (pre-incubated with H292 or H575 culture supernatant, then Pefabloc SC) against [125I]-CXCL8 on L1.2 cells expressing HA-CXCR1 or HA-CXCR2; n = 6.
The target of experiment [2] is HA-tagged human CXCR2 expressed on L1.2 cells (human) (UniProt P25025). The experiment is described as above.

As for “Recombinant human CXCL8, 72 aa form (CXCL8^1–72), intact (incubated with control H575 supernatant) (ligand)”, the values for the IC50 in experiment [1] and in experiment [2] were 8.1 nM and 8.7 nM, respectively.
